Experimental data: PMC12159676, “An uncharacterized gene from the Actinobacillus genus encodes a glucosyltransferase with successive transfer activity and unique substrate specificity” (The Journal of Biological Chemistry, 2025)

Target: the molecule itself
Test: SEC; gel-filtration chromatography of purified AmGGT and its mutants, with protein size markers; self-association, dimer against monomer

Protein	stoichiometry N	binding result
Actinobacillus minor glucoside-glucosyltransferase (AmGGT), wild type (enzyme, Actinobacillus minor NM305, UniProt C5RYK2 1-341, looked up, AmGGT, product of the ORF AM305_00150 of Actinobacillus minor strain NM305; ORF retrieved from NCBI, chemically synthesized, cloned into pET47b; The whole ORF was cloned; residues left over from the 3C protease site after cleavage are not described; also called AM305_00150 protein; WT AmGGT; source: E. coli BL21(DE3), purified (Ni-Sepharose, 3C protease cleavage, gel filtration; also HiTrapQ ion …)) MSNITFYFPFGHVPTYGGDFVNLEHIRALNKHGFSAKVILMKNQIPIVIESFPKDIPVVFYKPGMELNAQDVFVLSEGVRIMYSGLAQTQAFRVIVHNQNPFYTHTGMDSAHDINRYRITKIITPSHYTVKKLEEMGITKPMAVISPYIPEYFKPAEKSNEEIRITYSRRKREEESKILLFYLRSLYRGKKALHIRNLTNYKREEVAEEMSKAHIYASFAERESLGLMALEAMASGCHVVGFSGFTDFENQDVFNEENGDWVKEGEYKKFAEKLIEAIEQIENNTPSPKIENGLALVNSRFRQDRFEQEVVRVYQDILDNLPPLEGFNESDKVVLDFWHFD	2	–
AmGGT E135A mutant (enzyme, AmGGT, product of the ORF AM305_00150 of Actinobacillus minor strain NM305, with E135A; Production of the mutants is not described separately; source: E. coli BL21(DE3), purified (as told for the AmGGT protein); not shown: His6, N-terminal, cleaved) MSNITFYFPFGHVPTYGGDFVNLEHIRALNKHGFSAKVILMKNQIPIVIESFPKDIPVVFYKPGMELNAQDVFVLSEGVRIMYSGLAQTQAFRVIVHNQNPFYTHTGMDSAHDINRYRITKIITPSHYTVKKLEAMGITKPMAVISPYIPEYFKPAEKSNEEIRITYSRRKREEESKILLFYLRSLYRGKKALHIRNLTNYKREEVAEEMSKAHIYASFAERESLGLMALEAMASGCHVVGFSGFTDFENQDVFNEENGDWVKEGEYKKFAEKLIEAIEQIENNTPSPKIENGLALVNSRFRQDRFEQEVVRVYQDILDNLPPLEGFNESDKVVLDFWHFD	–	binds
AmGGT S185A mutant (enzyme, AmGGT, product of the ORF AM305_00150 of Actinobacillus minor strain NM305, with S185A; Production of the mutants is not described separately; source: E. coli BL21(DE3), purified (as told for the AmGGT protein); not shown: His6, N-terminal, cleaved) MSNITFYFPFGHVPTYGGDFVNLEHIRALNKHGFSAKVILMKNQIPIVIESFPKDIPVVFYKPGMELNAQDVFVLSEGVRIMYSGLAQTQAFRVIVHNQNPFYTHTGMDSAHDINRYRITKIITPSHYTVKKLEEMGITKPMAVISPYIPEYFKPAEKSNEEIRITYSRRKREEESKILLFYLRALYRGKKALHIRNLTNYKREEVAEEMSKAHIYASFAERESLGLMALEAMASGCHVVGFSGFTDFENQDVFNEENGDWVKEGEYKKFAEKLIEAIEQIENNTPSPKIENGLALVNSRFRQDRFEQEVVRVYQDILDNLPPLEGFNESDKVVLDFWHFD	–	binds
